Measured values as given in patent publication US20110281938, “APTAMERS TO TISSUE FACTOR PATHWAY INHIBITOR AND THEIR USE AS BLEEDING DISORDER THERAPEUTICS” (Baxter Healthcare S.A., published 2011).

Assays:
[1] = target: Kallikrein (UniProt P03952;P03952 P03952:20-390,P03952:391-638); assay: filter; no significant affinity up to 0.5-1 uM; conditions: label: radiolabel
[2] = target: alpha-Thrombin (UniProt P00734;P00734 P00734:328-363,P00734:364-622); assay: filter; no significant affinity up to 0.5-1 uM
[3] = target: Antithrombin (ATIII) (UniProt P01008 P01008:33-464); assay: filter; no significant affinity up to 0.5-1 uM; conditions: label: radiolabel
[4] = target: Factor XIa (UniProt P03951;P03951 P03951:19-387,P03951:388-625); assay: filter; no significant affinity up to 0.5-1 uM; conditions: chain copies: 2; label: radiolabel
[5] = target: Factor Xa (UniProt P00742;P00742 P00742:41-179,P00742:235-488); assay: filter; no significant affinity up to 0.5-1 uM; conditions: label: radiolabel
[6] = target: Factor VIIa (UniProt P08709;P08709 P08709:61-212,P08709:213-466); assay: filter; no significant affinity up to 0.5-1 uM; conditions: label: radiolabel
[7] = target: Plasmin (UniProt P00747;P00747 P00747:97-580,P00747:581-810); assay: filter; no significant affinity up to 0.5-1 uM; conditions: label: radiolabel
[8] = target: alpha-1 antitrypsin (serpin-A1) (UniProt P01009 P01009:25-418); assay: filter; no significant affinity up to 0.5-1 uM; conditions: label: radiolabel
[9] = target: Prothrombin (UniProt P00734 P00734:44-622); assay: filter; no significant affinity up to 0.5-1 uM; conditions: label: radiolabel
[10] = target: T1, TFPI-2 (UniProt P48307 P48307:23-235); assay: filter; no significant affinity up to 0.5-1 uM; conditions: label: radiolabel
T1 sequence: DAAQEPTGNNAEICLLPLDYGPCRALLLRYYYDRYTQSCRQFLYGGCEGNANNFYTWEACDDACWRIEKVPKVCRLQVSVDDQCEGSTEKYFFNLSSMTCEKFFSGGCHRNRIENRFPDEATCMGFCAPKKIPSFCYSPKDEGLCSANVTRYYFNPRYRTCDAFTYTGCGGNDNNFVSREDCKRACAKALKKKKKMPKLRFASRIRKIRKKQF

[11] = target: Factor IXa (UniProt P00740;P00740 P00740:47-191,P00740:227-461); assay: filter; no significant affinity up to 0.5-1 uM; conditions: label: radiolabel
[12] = target: T2, Heparin cofactor II (UniProt P05546 P05546:20-499); assay: filter; no significant affinity up to 0.5-1 uM; conditions: label: radiolabel
T2 sequence: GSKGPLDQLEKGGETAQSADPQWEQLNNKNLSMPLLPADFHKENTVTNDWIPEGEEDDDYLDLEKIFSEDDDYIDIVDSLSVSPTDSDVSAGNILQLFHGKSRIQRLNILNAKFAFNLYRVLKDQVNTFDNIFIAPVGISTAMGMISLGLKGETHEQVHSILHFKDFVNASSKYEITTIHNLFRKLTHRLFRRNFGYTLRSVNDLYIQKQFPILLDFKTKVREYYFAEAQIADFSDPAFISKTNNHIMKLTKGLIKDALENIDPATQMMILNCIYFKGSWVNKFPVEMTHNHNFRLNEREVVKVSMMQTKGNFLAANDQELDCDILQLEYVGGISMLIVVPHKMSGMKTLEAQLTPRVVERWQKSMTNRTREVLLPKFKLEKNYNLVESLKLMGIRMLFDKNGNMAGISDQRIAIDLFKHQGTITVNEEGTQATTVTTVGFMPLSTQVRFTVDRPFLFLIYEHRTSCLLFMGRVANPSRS

[13] = target: Factor Va (UniProt P12259;P12259 P12259:29-737,P12259:1574-2224); assay: filter; no significant affinity up to 0.5-1 uM; conditions: label: radiolabel
[14] = target: Truncated TFPI-K1K2 (UniProt P10646 SEQ:1-161); assay: filter; no detectable binding up to 500 nM; conditions: tags: American Diagnostica, E. coli expressed; label: radiolabel
Experimental: Trace amounts of radiolabeled ARC17480 were incubated with different concentrations of truncated TFPI-K1K2 (500 nM-0.008 nM) and the K3-C-terminal domain protein (500 nM-0.7 nM) (Table 1). […] Trace amounts of radiolabeled ARC17480 were incubated with different concentrations of the C-terminal peptide (10 μM-0.17 nM) (Table 1). Neutravidin (˜100 nM monomer) was then added to the binding solution to assist in the capture of aptamer:peptide complexes on a nitrocellulose filter. The amount of radiolabeled aptamer captured on a nitrocellulose filter was quantitated and compared to the total amount of radiolabeled aptamer to generate a binding curve, which is shown in FIG. 17B.

[15] = target: T3, TFPI (tissue factor pathway inhibitor, full-length) (Homo sapiens, UniProt P10646 SEQ:1-276); assay: competition; dot-blot, 10 nM TFPI; conditions: tags: American Diagnostica 4500PC/4900PC, E. coli expressed
Experimental: The substituted ARC17480 molecules were assayed for binding and function. The assays used for this evaluation were the calibrated automated thrombogram (CAT) assay, a dot-blot binding-competition assay and a FXa activity assay. The results of these assays are summarized in Table 40 and depicted in FIG. 147. A mutation was considered tolerated for activity if it met the criteria of at least two of the three assays that were carried out. Mutations that are tolerated (“yes”) and not tolerated (“no”) are identified in Table 40. The experimental details and the criteria used for each assay are described in the following paragraphs. The molecules described in this example were first tested in the CAT assay and the dot-blot binding-competition assay. In most cases, molecules were only tested in the FXa assay if there was a discrepancy between the results in the CAT assay and the dot-blot binding-competition assay.
Each molecule was evaluated for binding to tissue factor pathway inhibitor (TFPI) in a binding-competition assay. […] The IC₅₀ of each aptamer was compared to the IC₅₀ of ARC17480 that was evaluated in the same experiment. A mutation was considered tolerated in the binding-competition assay if the IC₅₀ of that molecule was not more than 5-fold greater than that of ARC17480 evaluated in the same experiment. […]

[16] = target: T3, TFPI (tissue factor pathway inhibitor, …); assay: competition; dot-blot vs radiolabeled ARC17480, 10 nM TFPI; conditions: tags: American Diagnostica 4500PC/4900PC, E. coli expressed
Experimental: Each molecule was evaluated for binding to tissue factor pathway inhibitor (TFPI) in a binding-competition assay. For these experiments, 10 nM human TFPI (American Diagnostica, Stamford, Conn., catalog #4500PC) was incubated with trace amounts of radiolabeled ARC17480 and 5000 nM, 1666.67 nM, 555.56 nM, 185.19 nM, 61.73 nM, 20.58 nM, 6.86 nM, 2.29 nM, 0.76 nM or 0.25 nM of unlabeled competitor aptamer. ARC17480 was included as a competitor in every experiment as a control. For each molecule, the percentage of radiolabeled ARC17480 bound at each competitor aptamer concentration was used for analysis. The percentage of radiolabeled ARC17480 bound was plotted as a function of aptamer concentration and fit to the equation y=(max/(1+x/IC₅₀))+int, where y=the percentage of radiolabeled ARC17480 bound, x=the concentration of aptamer, max=the maximum radiolabeled ARC17480 bound, and int=the y-intercept, to generate an IC₅₀ value for binding-competition. The IC₅₀ of each aptamer was compared to the IC₅₀ of ARC17480 that was evaluated in the same experiment. A substitution was considered tolerated in the binding-competition assay if the IC₅₀ of that molecule was not more than 5-fold greater than that of ARC17480 evaluated in the same experiment. Tolerated substitutions are indicated in Table 37 as meeting the assay criteria (“yes”) or not meeting the assay criteria (“no”).

[17] = target: T3, TFPI (tissue factor pathway inhibitor, …); assay: competition; fails binding-competition criterion; CAT and FXa yes; conditions: tags: American Diagnostica 4500PC/4900PC, E. coli expressed
Experimental: Each molecule was evaluated for binding to tissue factor pathway inhibitor (TFPI) in a binding-competition assay. For these experiments, 10 nM human TFPI (American Diagnostica, Stamford, Conn., catalog #4500PC) was incubated with trace amounts of radiolabeled ARC17480 and 5000 nM, 1666.67 nM, 555.56 nM, 185.19 nM, 61.73 nM, 20.58 nM, 6.86 nM, 2.29 nM, 0.76 nM or 0.25 nM of unlabeled competitor aptamer. ARC17480 was included as a competitor in every experiment as a control. For each molecule, the percentage of radiolabeled ARC17480 bound at each competitor aptamer concentration was used for analysis. The percentage of radiolabeled ARC17480 bound was plotted as a function of aptamer concentration and fit to the equation y=(max/(1+x/IC₅₀))+int, where y=the percentage of radiolabeled ARC17480 bound, x=the concentration of aptamer, max=the maximum radiolabeled ARC17480 bound, and int=the y-intercept, to generate an IC₅₀ value for binding-competition. The IC₅₀ of each aptamer was compared to the IC₅₀ of ARC17480 that was evaluated in the same experiment. A substitution was considered tolerated in the binding-competition assay if the IC₅₀ of that molecule was not more than 5-fold greater than that of ARC17480 evaluated in the same experiment. Tolerated substitutions are indicated in Table 38 as meeting the assay criteria (“yes”) or not meeting the assay criteria (“no”).

B1: ARC17480 (mixed)
RNA: GGAAUAUACUUGGCUCGUUAGGUGCGUAUAUA
modifications: 2'-OMe A/G/U, 2'-deoxy C, 3' idT
binding result [1]: no binding
binding result [2]: no binding
binding result [3]: no binding
binding result [4]: no binding
binding result [5]: no binding
binding result [6]: no binding
binding result [7]: no binding
binding result [8]: no binding
binding result [9]: no binding
binding result [10]: no binding
binding result [11]: no binding
binding result [12]: no binding
binding result [13]: no binding
binding result [14]: no binding

B2: ARC34856 (XNA)
RNA: AGAAUAUACUUGGCUCGUUAGGUGCGUAUAUA
modifications: 2'-OMe except dC9, dC14, dC16, dC25; 3' idT
binding signal [15]: ≤ 5 fold IC50 vs ARC17480

B3: ARC18539 (XNA)
RNA: GGAAUAUACUUGGCUCGUUAGGUGCGUAUAUA
modifications: 2'-OMe except dC9, dC16, dC25; 2'-OMe C14; 3' idT
binding signal [16]: ≤ 5 fold IC50 vs ARC17480

B4: ARC33889 (mixed)
RNA: UAUACUUGGCUCGUUAGGUGCGUAU
modifications: 2'-OMe A/G/U, 2'-deoxy C, 3' idT
binding signal [17]: > 5 fold IC50 of ARC17480
